Reference: patent US7479276

Legend:
[1] = target: human transferrin receptor (TfR) (human) (UniProt P02786); assay: indirect cellular ELISA on fixed JSQ-3 cells, anti-His detection; 0.6 µg of protein
[2] = target: human transferrin receptor (TfR) (human) (UniProt P02786); assay: indirect cellular ELISA on fixed JSQ-3 cells, anti-His detection; 3 µg of protein
[3] = target: human transferrin receptor (TfR) (human) (UniProt P02786); assay: indirect cellular ELISA on fixed JSQ-3 cells, anti-His detection
[4] = target: human transferrin receptor (TfR) (human) (UniProt P02786); assay: indirect cellular ELISA on fixed JSQ-3 cells, anti-His detection; 1.5 µg of protein
[5] = target: human transferrin receptor (TfR) (human) (UniProt P02786); assay: indirect cellular ELISA on fixed JSQ-3 cells; highest concentration of Hb21 (100 µl), positive control
[6] = target: human transferrin receptor (TfR) (human) (UniProt P02786); assay: FACS on DU145 cells, percent of cells above the fluorescence threshold
[7] = target: human transferrin receptor (TfR) (human) (UniProt P02786); assay: FACS on JSQ-3 cells, percent of cells above the fluorescence threshold

human transferrin receptor (TfR) (human), sequence (P02786 whole entry): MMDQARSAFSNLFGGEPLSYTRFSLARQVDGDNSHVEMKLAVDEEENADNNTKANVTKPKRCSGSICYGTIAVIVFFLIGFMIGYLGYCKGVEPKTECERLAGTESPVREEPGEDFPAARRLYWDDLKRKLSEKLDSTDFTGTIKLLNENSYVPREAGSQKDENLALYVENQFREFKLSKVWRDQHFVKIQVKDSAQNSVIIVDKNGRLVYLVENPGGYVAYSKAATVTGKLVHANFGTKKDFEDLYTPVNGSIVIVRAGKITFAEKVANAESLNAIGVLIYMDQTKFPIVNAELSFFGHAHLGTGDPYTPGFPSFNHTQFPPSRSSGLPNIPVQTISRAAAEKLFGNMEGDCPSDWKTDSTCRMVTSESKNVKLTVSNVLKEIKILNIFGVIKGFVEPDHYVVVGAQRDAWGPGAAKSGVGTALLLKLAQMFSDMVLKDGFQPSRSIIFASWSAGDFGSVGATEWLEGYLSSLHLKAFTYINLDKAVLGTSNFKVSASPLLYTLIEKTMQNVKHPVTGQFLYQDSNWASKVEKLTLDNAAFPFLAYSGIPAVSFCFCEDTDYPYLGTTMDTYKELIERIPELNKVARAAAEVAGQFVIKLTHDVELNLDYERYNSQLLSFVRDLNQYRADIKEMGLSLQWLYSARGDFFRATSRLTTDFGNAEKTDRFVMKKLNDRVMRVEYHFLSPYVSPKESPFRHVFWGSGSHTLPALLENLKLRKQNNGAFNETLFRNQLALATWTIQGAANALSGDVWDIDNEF

OD490 [1]	OD490 [2]	OD490 [3]	OD490 [4]	OD490 [5]	% Positive [6]	% Positive [7]	Substance
0.06 OD490	0.132 OD490	0.235 OD490	0.1 OD490	–	–	–	TfRscFv containing a C-terminal cysteine, with a His tag
–	–	–	–	0.033 OD490	98.7%	99.4%	HB21 anti-transferrin receptor monoclonal antibody
